Columns and labels:
[1] = target: T1, human recombinant α5β1 extracellular domain (human, UniProt P08648 42-995; P05556 21-728); assay: Biacore, antibody immobilised, α5β1 extracellular domain flowed, 25.0 C, 4.0 mM MgCl2
T1 construct: extracellular domain; also called α5β1 recombinant extracellular domain; extracellular domain of α5β1
Procedure: Binding kinetics and nominal avidity of 22B5/DLE to the extracellular domain of α5β1 was determined using Biacore analysis (Biacore AB, Uppsala, Sweden). To perform BIAcore kinetic analyses, the 22B5/DLE antibody was immobilized on a biosensor chip and various concentrations of human recombinant α5β1 extracellular domain were flowed across the surface at 25.0° C. (see FIG. 3). The binding data were fit globally to a simple one-to-one binding model with drifting baseline. 22B5/DLE binds reversibly to α5β1. […] The KD was greater when measured in the absence of divalent cations, consistent with cation-dependent activation of integrin.

[2] = target: T2, human integrin α5β1 on cells (endogenous, HUVEC; tumor or endothelial-expressed) (human, UniProt P08648 42-1049; P05556 21-798); assay: FACS on HUVEC, geometric mean against mAb concentration, two-state equilibrium model
T2 construct: whole, on cells; also called cell surface integrin α5; endogenous α5β1
Procedure: (§1) The 22B5/DLE antibody was tested for its binding affinity to cell surface integrin α5 using a FACS assay, employing endogenous human integrin α5β1 expressing cells (HUVEC). Briefly, the cells were detached using trypsin-EDTA and washed with cold PBS. After being aliquoted into 96-well plates, the cells were blocked by serum and incubated with different concentrations of specific mAb for 1 hour at 4° C. Subsequently, the cells were washed and incubated with an anti-human κ secondary antibody conjugated with the R-PE fluorophore and analyzed using a FACSCalibur flow cytometer. 10,000 events were collected for each sample without applying any gating. For KD determination, the Geometric Mean of each sample histogram was calculated and plotted as a function of the mAb concentration. KD was calculated after fitting to a two-state equilibrium model.

[3] = target: T2, human integrin α5β1 on cells …; assay: cell-based or functional assay
[4] = target: T3, Human FcγRIIIa/158F (human, UniProt P08637 17-208, limits assumed); assay: Biacore
T3 construct: also called Human FcγRIII/158F
Procedure: The ability of 22B5/DLE, which contains the IgG1 DLE triple mutations (as discussed previously in Example 2), to enhance binding to the FcγRs was evaluated in a Biacore binding experiment. The FcγR binding affinities of 22B5/DLE were compared with the binding affinity of wild type (wt) IgG1. […] The binding affinity comparison of 22B5/DLE and wild type IgG1 was also evaluated against the murine Fcγ receptors. The greatest enhancement in binding was to the mFcγRIV, followed by mFcγRI, and mFcγRIII (see FIG. 5).

[5] = target: T2, human integrin α5β1 on cells …; assay: FACS on HUVEC (endogenous human α5β1), GeoMean against mAb concentration, fitted; experiment 030207
[6] = target: T2, human integrin α5β1 on cells …; assay: FACS on HUVEC (endogenous human α5β1), GeoMean against mAb concentration, fitted; experiment 031307
Procedure: as §1, with “22B5/DLE, 24C7/DLE, 1 D9/DLE, and 2D2/DLE antibodies were” for “22B5/DLE antibody was”, “their” for “its”

T2 sequence (P08648 42-1049, chain 1 of 2): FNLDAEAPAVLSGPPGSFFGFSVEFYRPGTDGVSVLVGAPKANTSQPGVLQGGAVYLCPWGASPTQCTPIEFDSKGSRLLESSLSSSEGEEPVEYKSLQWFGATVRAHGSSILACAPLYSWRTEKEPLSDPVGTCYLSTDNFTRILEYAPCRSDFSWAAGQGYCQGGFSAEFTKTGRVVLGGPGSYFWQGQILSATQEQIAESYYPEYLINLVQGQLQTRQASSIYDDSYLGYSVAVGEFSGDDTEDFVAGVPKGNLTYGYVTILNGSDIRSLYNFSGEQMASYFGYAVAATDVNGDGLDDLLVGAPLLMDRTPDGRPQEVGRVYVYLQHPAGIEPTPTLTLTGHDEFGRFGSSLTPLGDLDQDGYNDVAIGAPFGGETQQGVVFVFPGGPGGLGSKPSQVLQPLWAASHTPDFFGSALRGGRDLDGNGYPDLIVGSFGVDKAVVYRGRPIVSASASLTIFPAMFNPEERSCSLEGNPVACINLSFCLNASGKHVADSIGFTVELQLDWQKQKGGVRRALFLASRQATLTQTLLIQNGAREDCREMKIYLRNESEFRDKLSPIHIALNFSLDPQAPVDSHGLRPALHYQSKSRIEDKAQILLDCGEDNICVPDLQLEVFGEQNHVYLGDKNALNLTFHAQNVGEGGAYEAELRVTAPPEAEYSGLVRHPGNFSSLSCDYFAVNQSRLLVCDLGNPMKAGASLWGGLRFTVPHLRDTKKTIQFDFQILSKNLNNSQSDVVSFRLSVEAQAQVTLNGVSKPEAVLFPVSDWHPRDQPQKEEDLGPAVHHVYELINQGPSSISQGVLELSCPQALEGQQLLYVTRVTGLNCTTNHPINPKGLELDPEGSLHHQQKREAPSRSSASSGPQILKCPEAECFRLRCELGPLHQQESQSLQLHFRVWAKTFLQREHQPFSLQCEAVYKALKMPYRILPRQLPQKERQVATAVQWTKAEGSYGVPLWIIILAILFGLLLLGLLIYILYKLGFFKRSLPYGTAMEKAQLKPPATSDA
T2 sequence (P05556 21-798, chain 2 of 2): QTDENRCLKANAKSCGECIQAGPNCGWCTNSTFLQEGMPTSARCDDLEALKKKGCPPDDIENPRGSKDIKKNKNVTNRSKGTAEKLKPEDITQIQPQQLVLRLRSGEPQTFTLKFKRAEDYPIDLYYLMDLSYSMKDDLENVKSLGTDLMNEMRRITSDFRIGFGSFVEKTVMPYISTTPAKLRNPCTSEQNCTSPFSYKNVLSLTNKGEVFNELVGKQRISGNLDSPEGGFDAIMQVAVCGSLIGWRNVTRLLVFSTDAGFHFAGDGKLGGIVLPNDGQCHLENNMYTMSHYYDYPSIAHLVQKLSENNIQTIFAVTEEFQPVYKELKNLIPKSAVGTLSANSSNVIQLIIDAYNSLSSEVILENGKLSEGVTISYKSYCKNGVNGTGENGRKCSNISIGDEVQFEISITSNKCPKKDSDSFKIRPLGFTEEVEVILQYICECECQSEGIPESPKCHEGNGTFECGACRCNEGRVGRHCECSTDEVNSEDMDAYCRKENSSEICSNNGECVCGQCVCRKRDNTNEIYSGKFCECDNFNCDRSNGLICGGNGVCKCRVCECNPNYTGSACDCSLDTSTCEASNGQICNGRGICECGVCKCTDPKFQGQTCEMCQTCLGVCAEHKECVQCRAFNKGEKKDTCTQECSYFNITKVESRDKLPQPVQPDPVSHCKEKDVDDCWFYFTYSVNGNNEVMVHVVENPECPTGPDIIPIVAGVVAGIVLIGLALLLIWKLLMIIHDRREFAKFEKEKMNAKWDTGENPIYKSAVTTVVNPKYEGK
T1 sequence (P08648 42-995, chain 1 of 2): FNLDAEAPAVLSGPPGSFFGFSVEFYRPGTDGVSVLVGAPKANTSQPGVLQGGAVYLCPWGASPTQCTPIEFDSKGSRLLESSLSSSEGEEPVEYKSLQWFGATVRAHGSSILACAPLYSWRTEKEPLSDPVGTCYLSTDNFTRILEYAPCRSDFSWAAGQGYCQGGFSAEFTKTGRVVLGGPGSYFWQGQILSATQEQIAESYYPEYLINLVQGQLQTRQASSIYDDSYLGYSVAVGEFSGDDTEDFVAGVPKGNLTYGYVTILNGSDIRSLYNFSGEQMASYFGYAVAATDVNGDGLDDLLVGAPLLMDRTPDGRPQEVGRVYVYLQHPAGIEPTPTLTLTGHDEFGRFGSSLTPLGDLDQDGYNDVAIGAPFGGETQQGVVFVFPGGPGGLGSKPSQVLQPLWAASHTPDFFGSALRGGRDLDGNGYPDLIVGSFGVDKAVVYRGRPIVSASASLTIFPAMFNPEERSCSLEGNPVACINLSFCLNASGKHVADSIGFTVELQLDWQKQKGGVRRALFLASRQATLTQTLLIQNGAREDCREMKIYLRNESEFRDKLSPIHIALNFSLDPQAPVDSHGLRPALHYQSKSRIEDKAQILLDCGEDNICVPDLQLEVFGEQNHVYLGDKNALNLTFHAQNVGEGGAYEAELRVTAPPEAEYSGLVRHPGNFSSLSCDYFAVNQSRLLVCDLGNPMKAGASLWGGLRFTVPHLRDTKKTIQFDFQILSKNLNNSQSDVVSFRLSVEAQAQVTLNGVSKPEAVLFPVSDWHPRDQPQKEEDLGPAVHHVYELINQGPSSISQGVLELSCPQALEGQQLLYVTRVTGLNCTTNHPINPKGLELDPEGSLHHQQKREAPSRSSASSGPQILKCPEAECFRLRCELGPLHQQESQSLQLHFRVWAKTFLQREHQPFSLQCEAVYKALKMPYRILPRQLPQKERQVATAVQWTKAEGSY
T1 sequence (P05556 21-728, chain 2 of 2): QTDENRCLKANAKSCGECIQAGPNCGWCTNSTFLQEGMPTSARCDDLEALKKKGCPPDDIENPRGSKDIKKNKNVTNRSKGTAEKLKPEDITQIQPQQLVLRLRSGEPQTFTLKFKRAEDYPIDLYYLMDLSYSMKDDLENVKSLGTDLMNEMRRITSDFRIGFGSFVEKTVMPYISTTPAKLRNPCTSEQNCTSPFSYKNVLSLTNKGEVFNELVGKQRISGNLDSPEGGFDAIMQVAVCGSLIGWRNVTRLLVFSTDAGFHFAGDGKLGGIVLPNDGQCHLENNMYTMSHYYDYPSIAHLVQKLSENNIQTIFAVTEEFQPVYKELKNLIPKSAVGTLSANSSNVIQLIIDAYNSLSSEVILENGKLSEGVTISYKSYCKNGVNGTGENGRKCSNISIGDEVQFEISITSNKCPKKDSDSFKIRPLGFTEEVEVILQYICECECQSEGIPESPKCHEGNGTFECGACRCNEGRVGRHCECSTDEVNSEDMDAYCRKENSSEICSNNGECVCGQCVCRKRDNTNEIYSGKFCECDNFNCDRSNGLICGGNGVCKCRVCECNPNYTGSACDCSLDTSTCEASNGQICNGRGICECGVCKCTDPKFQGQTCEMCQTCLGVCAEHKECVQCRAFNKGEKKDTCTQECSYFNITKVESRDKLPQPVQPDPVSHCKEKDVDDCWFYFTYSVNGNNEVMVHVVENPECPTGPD
T3 sequence (P08637 17-208 limits assumed): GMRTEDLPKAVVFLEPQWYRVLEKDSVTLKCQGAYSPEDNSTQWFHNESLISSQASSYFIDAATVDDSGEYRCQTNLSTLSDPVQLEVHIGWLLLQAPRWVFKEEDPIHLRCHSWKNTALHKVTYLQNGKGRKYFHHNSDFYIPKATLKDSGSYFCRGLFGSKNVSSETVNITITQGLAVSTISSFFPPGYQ

Kd [1]: 4.1 nM | koff [1]: 0.0014 s⁻¹ | kon [1]: 340000 M⁻¹ s⁻¹ | Kd [2]: 2.15 nM | IC50, inhibition of HUVEC adhesion to fibronectin (fluorescence 485/535 nM) [3]: 1.01 nM | Kd [4]: 27 nM | Kd [5]: 2.42 nM | Kd [6]: 1.99 nM
B1: 22B5/DLE (antibody, human IgG1, kappa)
heavy: QLQLQESGPGLVKPSETLSLTCTVSGGSISSSSYWGWIRQPPGKGLEWIGSIYYSGRNYNNPSLKSRVTISVDTSKNQFSLKLSSVTAADTAVYYCARHYYGSGSSYYYYDLDVWGQGTTVTVSSASTKGPSVFPLAPSSKSTSGGTAALGCLVKDYFPEPVTVSWNSGALTSGVHTFPAVLQSSGLYSLSSVVTVPSSSLGTQTYICNVNHKPSNTKVDKKVEPKSCDKTHTCPPCPAPELLGGPDVFLFPPKPKDTLMISRTPEVTCVVVDVSHEDPEVKFNWYVDGVEVHNAKTKPREEQYNSTYRVVSVLTVLHQDWLNGKEYKCKVSNKALPLPEEKTISKAKGQPREPQVYTLPPSREEMTKNQVSLTCLVKGFYPSDIAVEWESNGQPENNYKTTPPVLDSDGSFFLYSKLTVDKSRWQQGNVFSCSVMHEALHNHYTQKSLSLSPGK
light: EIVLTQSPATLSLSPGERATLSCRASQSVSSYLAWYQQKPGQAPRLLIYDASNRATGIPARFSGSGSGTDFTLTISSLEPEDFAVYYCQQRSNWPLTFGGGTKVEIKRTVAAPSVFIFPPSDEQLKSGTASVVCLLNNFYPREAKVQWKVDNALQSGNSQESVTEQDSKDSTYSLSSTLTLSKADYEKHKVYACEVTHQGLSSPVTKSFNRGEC
notes: Human IgG1 with Fc mutations S247D, A338L, I340E; the VH already holds the germline back-mutations I30S and N33S; also called 22B5 IgG1 DLE; 22B5 G1 DLE

Reference: patent US20100330078A1 (Pfizer, published 2010)
